From patent US10052368B2, “Pegylated tissue kallikrein, and preparation method therefor and uses thereof” (ZONHON BIOPHARMA INSTITUTE INC., priority 2013, dated 2018)

Tested on: cerebral ischemia reperfusion model of middle cerebral artery obstruction (MCAO)
Assay: Cerebral ischemia reperfusion model of middle cerebral artery obstruction (MCAO)
Type: in vivo
Conditions: SD rats, 3 μg/kg once via vena caudalis
Description: A cerebral ischemia reperfusion model of middle cerebral artery obstruction (MCAO) was established by thread embolizing the internal carotid artery of SD rats (purchased from Shanghai Sippr bk Laboratory Animal Co. LTD.) A positive control 1 group (urinary kallikrein, Guangdong Tianpu Biochemical Pharmaceutical Co., LTD.), a positive control 2 group (tPA, Shanghai Boehringer Ingelheim Pharmaceuticals Co., LTD), a model control group (PBS), a sham group, a kallikrein group (from Changzhou Qianhong Biochemical Pharmaceutical Co., LTD.), a conjugate 1 group, a conjugate 2 group, a conjugate 3 group, and a conjugate 4 group were arranged respectively. Administration by injection through vena caudalis was performed once at 3 μg/kg (calculated according to the protein amount) immediately after the cerebral ischemia reperfusion. Neurologic deficit symptoms were observed 24 h after the reperfusion, and the cerebral infarction area was determined. In the model group, an equal volume of PBS was injected through vena caudalis into the rat. In the sham group, only blood vessels were separated, no embolizing thread was inserted, and an equal volume of PBS was injected through vena caudalis into the rats. Neurologic deficit symptoms were evaluated employing an improved Bederson 5-point system method. Neurologic deficit symptoms of the rats after brain trauma were evaluated by a single-blind method, i.e., the animals were marked according to groups by designers of the experiment, and scores of the neurologic deficit symptoms were given by experimenters blind to the grouping situation. The cerebral infarction area was calculated employing the following method. Cerebrums of the SD rats were stained with TTC (2,3,5-triphenyltetrazolium chloride) and then the photographs were subjected to statistics using an image analysis software, and the percentage of cerebral infarction area was calculated according to the following formula: % cerebral infarction area=100×(total ischemic area/total area on the right side)

B1: Positive control 2: tPA, Shanghai Boehringer Ingelheim Pharmaceuticals (protein, UniProt P00750 36-562, looked up)
Tissue-type plasminogen …: SYQVICRDEKTQMIYQQHQSWLRPVLRSNRVEYCWCNSGRAQCHSVPVKSCSEPRCFNGGTCQQALYFSDFVCQCPEGFAGKCCEIDTRATCYEDQGISYRGTWSTAESGAECTNWNSSALAQKPYSGRRPDAIRLGLGNHNYCRNPDRDSKPWCYVFKAGKYSSEFCSTPACSEGNSDCYFGNGSAYRGTHSLTESGASCLPWNSMILIGKVYTAQNPSAQALGLGKHNYCRNPDGDAKPWCHVLKNRRLTWEYCDVPSCSTCGLRQYSQPQFRIKGGLFADIASHPWQAAIFAKHRRSPGERFLCGGILISSCWILSAAHCFQERFPPHHLTVILGRTYRVVPGEEEQKFEVEKYIVHKEFDDDTYDNDIALLQLKSDSSRCAQESSVVRTVCLPPADLQLPDWTECELSGYGKHEALSPFYSERLKEAHVRLYPSSRCTSQHLLNRTVTDNMLCAGDTRSGGPQANLHDACQGDSGGPLVCLNDGRMTLVGIISWGLGCGQKDVPGVYTKVTNYLDWIRDNMRP
amelioration of cerebral infarction status of the model animals (in words): no apparent amelioration | Cerebral infarction area (%) (24 h after reperfusion, TTC staining): 31.55 ± 2.71% | Score of neurologic deficit symptom (24 h after reperfusion, improved Bederson 5-point system): 3.00 ± 0.20
